# According to patent US9176064B2, “Bisubstrate fluorescent probes for protein kinase CK2” (University of Tartu, priority 2012, dated 2015):
# Where a SMILES comes first, the peptide text is derived from it. [ ]: non-standard residue; d: D form. The star is where a group is joined. X1 = O=C(CCCCCCCn1cnc2c(Br)c(Br)c(Br)c(Br)c21)*
# Experiments:
# Assay in all cases: Kinase panel residual activity
# Type in all cases: biochemical
# Conditions in all cases: compound at 1 micromolar
# [1] = target: MPSK1 (Homo sapiens, UniProt O75716)
# [2] = target: ABL (Homo sapiens, UniProt P00519)
# [3] = target: T1, TLK1 (Homo sapiens, UniProt Q9UKI8)
# T1 sequence (Q9UKI8 1-766): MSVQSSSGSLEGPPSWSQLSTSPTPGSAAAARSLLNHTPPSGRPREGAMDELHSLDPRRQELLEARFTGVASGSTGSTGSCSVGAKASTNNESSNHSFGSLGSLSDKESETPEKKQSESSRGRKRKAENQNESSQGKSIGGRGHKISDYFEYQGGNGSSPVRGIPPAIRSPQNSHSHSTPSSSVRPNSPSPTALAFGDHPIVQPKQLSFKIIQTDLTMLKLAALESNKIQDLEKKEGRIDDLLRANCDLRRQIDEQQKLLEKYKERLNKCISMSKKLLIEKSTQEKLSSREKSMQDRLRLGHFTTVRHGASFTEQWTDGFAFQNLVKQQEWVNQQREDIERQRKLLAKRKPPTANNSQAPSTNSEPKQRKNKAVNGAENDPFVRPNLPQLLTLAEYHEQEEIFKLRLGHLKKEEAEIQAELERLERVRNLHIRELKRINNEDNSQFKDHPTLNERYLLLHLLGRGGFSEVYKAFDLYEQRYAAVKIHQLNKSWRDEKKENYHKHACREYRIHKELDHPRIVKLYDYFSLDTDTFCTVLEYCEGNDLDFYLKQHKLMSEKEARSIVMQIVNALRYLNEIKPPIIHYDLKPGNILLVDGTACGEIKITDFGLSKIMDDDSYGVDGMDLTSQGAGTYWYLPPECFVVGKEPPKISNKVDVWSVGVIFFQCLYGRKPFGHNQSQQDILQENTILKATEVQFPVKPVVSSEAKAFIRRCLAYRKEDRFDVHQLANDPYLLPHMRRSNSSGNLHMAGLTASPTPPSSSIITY
# [4] = target: SYK (Homo sapiens, UniProt P43405)
# [5] = target: T2, TAK1 (Homo sapiens, UniProt O43318)
# T2 sequence (O43318 1-303 limits assumed): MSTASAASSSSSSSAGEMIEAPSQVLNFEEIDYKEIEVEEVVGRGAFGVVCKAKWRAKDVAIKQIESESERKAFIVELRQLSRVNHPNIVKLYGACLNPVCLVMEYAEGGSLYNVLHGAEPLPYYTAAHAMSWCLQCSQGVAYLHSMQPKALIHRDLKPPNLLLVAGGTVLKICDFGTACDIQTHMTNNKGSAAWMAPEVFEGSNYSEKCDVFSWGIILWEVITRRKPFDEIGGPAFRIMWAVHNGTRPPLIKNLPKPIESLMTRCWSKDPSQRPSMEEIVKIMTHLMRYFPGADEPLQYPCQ
# [6] = target: Src (Homo sapiens, UniProt P12931)
# [7] = target: HIPK2 (Homo sapiens, UniProt Q9H2X6)
# [8] = target: T3, TAO1 (Homo sapiens, UniProt Q7L7X3)
# T3 sequence (Q7L7X3 1-1001): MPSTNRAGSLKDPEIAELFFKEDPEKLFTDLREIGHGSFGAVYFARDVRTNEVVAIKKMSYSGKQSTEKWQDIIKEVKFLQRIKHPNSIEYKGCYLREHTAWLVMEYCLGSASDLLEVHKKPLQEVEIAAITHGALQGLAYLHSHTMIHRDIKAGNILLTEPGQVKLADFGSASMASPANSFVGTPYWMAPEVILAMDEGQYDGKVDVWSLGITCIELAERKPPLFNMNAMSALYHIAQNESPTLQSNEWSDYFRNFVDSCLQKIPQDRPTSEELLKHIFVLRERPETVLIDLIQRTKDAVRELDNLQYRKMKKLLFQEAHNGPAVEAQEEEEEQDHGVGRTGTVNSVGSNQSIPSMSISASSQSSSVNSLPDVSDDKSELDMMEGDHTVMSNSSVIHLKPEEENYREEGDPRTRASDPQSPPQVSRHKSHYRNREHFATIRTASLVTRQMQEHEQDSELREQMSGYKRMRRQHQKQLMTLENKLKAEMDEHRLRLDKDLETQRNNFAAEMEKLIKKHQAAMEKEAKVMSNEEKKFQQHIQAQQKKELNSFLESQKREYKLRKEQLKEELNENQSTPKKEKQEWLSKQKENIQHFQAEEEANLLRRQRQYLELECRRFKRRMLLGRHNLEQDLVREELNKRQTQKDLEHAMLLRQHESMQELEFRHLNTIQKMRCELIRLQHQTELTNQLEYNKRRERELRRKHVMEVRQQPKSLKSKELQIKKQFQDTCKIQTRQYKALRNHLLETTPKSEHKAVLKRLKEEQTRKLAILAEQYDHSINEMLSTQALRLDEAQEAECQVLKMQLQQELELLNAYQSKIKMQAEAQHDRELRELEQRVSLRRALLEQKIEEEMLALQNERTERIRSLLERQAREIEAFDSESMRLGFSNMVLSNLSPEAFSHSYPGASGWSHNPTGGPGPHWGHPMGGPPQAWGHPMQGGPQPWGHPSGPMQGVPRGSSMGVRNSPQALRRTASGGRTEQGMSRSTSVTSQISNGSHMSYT
# [9] = target: T4, CHK1 (Homo sapiens, UniProt O14757)
# T4 sequence (O14757 1-476): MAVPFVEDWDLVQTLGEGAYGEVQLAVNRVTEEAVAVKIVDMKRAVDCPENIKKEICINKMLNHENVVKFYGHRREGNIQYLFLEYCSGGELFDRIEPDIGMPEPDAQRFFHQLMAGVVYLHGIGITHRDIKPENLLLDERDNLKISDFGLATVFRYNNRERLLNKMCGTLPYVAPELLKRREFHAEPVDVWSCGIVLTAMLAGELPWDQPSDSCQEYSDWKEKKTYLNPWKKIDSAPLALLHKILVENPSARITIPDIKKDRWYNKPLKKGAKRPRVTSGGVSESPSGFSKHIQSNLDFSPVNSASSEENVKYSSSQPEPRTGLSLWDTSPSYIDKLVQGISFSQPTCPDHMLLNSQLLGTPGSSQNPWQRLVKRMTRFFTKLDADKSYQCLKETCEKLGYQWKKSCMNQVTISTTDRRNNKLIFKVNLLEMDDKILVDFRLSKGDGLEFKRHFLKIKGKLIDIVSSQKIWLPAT
# [10] = target: PAK2 (Homo sapiens, UniProt Q13177)
# PAK2, sequence (Q13177 whole entry, species assumed): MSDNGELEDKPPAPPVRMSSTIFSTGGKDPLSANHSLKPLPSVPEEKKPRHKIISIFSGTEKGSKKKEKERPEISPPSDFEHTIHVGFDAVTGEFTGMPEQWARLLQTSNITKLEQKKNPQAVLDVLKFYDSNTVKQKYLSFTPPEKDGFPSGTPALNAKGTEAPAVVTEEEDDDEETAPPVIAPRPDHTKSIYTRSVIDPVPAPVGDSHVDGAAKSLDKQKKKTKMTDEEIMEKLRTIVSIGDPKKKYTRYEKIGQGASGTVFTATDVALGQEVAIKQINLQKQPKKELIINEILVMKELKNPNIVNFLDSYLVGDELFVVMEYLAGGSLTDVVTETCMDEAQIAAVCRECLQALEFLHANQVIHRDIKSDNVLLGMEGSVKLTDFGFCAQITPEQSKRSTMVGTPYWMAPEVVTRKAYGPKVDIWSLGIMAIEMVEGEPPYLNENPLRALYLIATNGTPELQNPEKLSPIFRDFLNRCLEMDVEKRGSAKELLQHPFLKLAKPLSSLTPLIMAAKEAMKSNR
# ABL, sequence (P00519 whole entry, species assumed): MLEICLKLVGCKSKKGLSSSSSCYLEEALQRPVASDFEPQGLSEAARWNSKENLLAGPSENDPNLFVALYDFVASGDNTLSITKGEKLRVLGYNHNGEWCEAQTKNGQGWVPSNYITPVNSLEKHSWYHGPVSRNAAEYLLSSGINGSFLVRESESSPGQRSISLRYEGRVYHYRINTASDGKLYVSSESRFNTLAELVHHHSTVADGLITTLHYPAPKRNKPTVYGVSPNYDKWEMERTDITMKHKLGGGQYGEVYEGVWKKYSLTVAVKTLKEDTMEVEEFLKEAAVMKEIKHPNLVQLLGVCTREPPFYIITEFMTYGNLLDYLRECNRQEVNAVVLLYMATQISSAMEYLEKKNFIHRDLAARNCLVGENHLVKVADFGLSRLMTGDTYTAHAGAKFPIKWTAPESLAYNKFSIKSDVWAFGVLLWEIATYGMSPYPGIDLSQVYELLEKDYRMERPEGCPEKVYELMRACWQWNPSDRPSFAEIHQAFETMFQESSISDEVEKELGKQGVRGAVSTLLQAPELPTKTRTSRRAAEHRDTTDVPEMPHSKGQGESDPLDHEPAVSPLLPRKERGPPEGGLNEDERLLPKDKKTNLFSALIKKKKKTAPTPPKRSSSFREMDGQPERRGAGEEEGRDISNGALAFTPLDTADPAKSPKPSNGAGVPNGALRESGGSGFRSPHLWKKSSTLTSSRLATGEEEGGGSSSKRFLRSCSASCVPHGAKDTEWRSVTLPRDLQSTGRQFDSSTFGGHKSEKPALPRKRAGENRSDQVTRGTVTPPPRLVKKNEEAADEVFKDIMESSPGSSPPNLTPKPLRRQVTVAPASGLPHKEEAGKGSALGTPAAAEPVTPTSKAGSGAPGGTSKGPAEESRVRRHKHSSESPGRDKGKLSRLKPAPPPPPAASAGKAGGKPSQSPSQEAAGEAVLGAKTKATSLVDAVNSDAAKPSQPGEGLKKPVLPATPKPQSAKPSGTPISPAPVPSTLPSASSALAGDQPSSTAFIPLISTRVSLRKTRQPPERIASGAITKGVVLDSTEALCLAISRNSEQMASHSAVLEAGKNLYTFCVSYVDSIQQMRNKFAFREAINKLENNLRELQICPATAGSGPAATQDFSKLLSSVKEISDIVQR
# Src, sequence (P12931 whole entry, species assumed): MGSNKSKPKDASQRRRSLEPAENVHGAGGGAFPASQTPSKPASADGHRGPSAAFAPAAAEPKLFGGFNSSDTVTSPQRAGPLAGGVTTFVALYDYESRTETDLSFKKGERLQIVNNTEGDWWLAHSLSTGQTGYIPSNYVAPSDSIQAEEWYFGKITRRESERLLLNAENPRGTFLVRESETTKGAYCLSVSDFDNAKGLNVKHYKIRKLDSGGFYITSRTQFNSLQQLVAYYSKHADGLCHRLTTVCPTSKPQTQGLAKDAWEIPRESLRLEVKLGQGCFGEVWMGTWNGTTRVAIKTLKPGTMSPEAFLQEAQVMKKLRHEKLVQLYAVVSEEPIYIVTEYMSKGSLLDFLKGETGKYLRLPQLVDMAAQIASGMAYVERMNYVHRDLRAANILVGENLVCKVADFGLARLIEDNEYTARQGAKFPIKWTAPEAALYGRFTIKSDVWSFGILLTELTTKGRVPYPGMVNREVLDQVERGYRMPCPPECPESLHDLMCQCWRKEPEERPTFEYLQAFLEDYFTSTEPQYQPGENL
# HIPK2, sequence (Q9H2X6 whole entry, species assumed): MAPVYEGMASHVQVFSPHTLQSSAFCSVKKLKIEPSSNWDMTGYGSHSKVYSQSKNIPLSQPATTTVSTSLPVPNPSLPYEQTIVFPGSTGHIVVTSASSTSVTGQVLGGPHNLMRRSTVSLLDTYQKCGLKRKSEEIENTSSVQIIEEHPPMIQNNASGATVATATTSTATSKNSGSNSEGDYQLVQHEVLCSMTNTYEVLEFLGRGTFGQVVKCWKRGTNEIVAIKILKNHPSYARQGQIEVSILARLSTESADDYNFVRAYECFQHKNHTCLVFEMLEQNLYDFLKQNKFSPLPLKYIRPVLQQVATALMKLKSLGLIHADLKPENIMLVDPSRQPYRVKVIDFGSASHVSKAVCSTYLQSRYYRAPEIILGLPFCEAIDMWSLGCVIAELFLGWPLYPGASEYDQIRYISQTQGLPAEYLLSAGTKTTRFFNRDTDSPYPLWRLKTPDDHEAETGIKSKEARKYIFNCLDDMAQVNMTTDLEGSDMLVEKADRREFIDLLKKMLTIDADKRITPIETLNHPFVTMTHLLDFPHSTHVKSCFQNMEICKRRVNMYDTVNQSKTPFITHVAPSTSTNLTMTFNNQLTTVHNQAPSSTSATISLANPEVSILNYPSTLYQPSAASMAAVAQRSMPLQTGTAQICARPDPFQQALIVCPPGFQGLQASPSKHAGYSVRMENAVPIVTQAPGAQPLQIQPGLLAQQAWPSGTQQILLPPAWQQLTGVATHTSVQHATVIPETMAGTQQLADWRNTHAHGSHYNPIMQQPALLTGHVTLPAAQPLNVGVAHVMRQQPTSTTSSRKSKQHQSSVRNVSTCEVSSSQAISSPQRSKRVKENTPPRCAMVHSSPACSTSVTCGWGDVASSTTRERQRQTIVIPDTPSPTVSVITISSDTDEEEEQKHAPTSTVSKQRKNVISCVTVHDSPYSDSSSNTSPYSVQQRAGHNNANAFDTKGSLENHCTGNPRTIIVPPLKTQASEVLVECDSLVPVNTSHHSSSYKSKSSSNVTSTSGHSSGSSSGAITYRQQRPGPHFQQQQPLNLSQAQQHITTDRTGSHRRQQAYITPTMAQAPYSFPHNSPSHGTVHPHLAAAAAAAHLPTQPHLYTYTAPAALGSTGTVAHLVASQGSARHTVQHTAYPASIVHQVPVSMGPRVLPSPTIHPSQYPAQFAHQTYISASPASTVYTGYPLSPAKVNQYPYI
# MPSK1, sequence (O75716 whole entry, species assumed): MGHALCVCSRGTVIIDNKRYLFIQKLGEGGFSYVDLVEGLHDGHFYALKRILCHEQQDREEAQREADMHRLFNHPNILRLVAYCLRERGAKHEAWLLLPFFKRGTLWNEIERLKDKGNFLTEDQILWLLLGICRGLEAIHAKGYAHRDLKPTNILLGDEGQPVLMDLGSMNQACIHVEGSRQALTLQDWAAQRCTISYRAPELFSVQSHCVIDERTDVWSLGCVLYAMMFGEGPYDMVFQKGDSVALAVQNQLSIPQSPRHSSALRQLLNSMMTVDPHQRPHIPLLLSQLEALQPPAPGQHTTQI
structure (smiles),measurement,setting,value
NCCCC[C@H](NC(=O)[C@H](CC(=O)O)NC(=O)[C@H](CC(=O)O)NC(=O)[C@H](CC(=O)O)NC(=O)[C@H](CC(=O)O)NC(=O)[C@H](CC(=O)O)NC(=O)[C@@H](CC(=O)O)NC(=O)CCCCCCCn1cnc2c(Br)c(Br)c(Br)c(Br)c21)C(=O)O [TBBI-OcA-(D-Asp)-(L-Asp)5-(L-Lys)-OH] (X1-[dD]DDDDDK-OH),remaining activity at 1 µM,[1],96%
same,remaining activity at 1 µM,[2],101%
same,remaining activity at 1 µM,[3],107%
same,remaining activity at 1 µM,[4],100%
same,remaining activity at 1 µM,[5],62%
same,remaining activity at 1 µM,[6],57%
same,remaining activity at 1 µM,[7],36%
same,remaining activity at 1 µM,[8],84%
same,remaining activity at 1 µM,[9],134%
same,remaining activity at 1 µM,[10],102%
